The record followed here is US20230203177A1 (Bristol-Myers Squibb, published 2023).

To fix the notation:
B1: M35 (HC-K12Q,K13Q,K23Q / LC-K45E) (antibody, human IgG1, kappa, V domains shown)
VH: QVQLVQSGAEVQQPGSSVKVSCQASGYAFTSYWMHWVRQAPGQGLEWMGQINPTTGRSQYNEKFKTRVTITADKSTSTAYMELSSLRSEDTAVYYCARWGLQPFAYWGQGTLVTVSS
VL: DIQMTQSPSFLSASVGDRVTITCKASQDVSTAVAWYQQKPGKAPELLIYSASYRYTGVPSRFSGSGSGTDFTLTISSLQPEDFATYYCQQHYSTPWTFGGGTKVEIKR
notes: IgG1-P238K; also called HC3/LC3
B2: M67 (HC-K12Q,K13Q,K23Q / LC-R61Q) (antibody, human IgG1, kappa, V domains shown)
VH: B1 VH
VL: B1 VL with E45K, R61Q
notes: IgG1-P238K; also called HC3/LC5
B3: M39 (HC-K23E / LC-K45E) (antibody, human IgG1, kappa)
heavy: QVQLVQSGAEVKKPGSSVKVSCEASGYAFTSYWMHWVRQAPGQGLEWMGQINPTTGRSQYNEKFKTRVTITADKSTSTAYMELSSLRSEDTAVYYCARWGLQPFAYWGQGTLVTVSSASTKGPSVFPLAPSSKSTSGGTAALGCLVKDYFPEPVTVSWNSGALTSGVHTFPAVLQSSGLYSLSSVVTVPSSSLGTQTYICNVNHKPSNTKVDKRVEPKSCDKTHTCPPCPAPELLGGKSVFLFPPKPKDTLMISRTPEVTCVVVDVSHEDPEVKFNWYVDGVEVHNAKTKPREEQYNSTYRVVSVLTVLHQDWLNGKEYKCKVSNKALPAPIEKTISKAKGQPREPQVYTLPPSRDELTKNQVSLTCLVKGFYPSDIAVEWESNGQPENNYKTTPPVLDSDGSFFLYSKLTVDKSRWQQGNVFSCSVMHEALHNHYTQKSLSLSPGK
light: DIQMTQSPSFLSASVGDRVTITCKASQDVSTAVAWYQQKPGKAPELLIYSASYRYTGVPSRFSGSGSGTDFTLTISSLQPEDFATYYCQQHYSTPWTFGGGTKVEIKRTVAAPSVFIFPPSDEQLKSGTASVVCLLNNFYPREAKVQWKVDNALQSGNSQESVTEQDSKDSTYSLSSTLTLSKADYEKHKVYACEVTHQGLSSPVTKSFNRGEC
notes: IgG1-P238K; also called HC7/LC3
B4: M44 (HC-R57E,K74Q / LC-K45E) (antibody, human IgG1, kappa, V domains shown)
VH: B1 VH with Q12K, Q13K, Q23K, R57E, K74Q
VL: B1 VL
notes: IgG1-P238K; also called HC12/LC3
B5: M45 (HC-E46K,E62K / LC-K45E) (antibody, human IgG1, kappa, V domains shown)
VH: B1 VH with Q12K, Q13K, Q23K, E46K, E62K
VL: B1 VL
notes: IgG1-P238K; also called HC13/LC3
B6: M48 (HC-K63Q / LC-K45E) (antibody, human IgG1, kappa, V domains shown)
VH: B1 VH with Q12K, Q13K, Q23K, K63Q
VL: B1 VL
notes: IgG1-P238K; also called HC16/LC3
B7: M65 (HC-wt / LC-R61Q) (antibody, human IgG1, kappa)
heavy: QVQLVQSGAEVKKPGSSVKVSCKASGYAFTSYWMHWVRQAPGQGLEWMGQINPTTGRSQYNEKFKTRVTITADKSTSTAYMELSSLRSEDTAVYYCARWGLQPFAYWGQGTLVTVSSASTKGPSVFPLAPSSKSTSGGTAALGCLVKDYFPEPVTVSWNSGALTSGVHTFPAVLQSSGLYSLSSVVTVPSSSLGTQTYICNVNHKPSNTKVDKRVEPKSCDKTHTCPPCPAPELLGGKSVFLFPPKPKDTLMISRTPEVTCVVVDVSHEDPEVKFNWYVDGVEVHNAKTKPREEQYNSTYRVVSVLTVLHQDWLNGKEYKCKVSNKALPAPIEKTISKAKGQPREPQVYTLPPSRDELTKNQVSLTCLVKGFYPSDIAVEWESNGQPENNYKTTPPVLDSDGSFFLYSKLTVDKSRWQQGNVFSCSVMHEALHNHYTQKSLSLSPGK
light: B3 light with E45K, R61Q
notes: IgG1-P238K; also called HC1/LC5
B8: M60 (HC-R57E,K74Q / LC-K45Q,R54Q,R61Q) (antibody, human IgG1, kappa, V domains shown)
VH: B1 VH with Q12K, Q13K, Q23K, R57E, K74Q
VL: B1 VL with E45Q, R54Q, R61Q
notes: IgG1-P238K; also called HC12/LC4
B9: M58 (HC-R67E / LC-K45Q,R54Q,R61Q) (antibody, human IgG1, kappa, V domains shown)
VH: B1 VH with Q12K, Q13K, Q23K, R67E
VL: B1 VL with E45Q, R54Q, R61Q
notes: IgG1-P238K; also called HC10/LC4
B10: M50 (HC-K12Q,K13Q / LC-K45Q,R54Q,R61Q) (antibody, human IgG1, kappa)
heavy: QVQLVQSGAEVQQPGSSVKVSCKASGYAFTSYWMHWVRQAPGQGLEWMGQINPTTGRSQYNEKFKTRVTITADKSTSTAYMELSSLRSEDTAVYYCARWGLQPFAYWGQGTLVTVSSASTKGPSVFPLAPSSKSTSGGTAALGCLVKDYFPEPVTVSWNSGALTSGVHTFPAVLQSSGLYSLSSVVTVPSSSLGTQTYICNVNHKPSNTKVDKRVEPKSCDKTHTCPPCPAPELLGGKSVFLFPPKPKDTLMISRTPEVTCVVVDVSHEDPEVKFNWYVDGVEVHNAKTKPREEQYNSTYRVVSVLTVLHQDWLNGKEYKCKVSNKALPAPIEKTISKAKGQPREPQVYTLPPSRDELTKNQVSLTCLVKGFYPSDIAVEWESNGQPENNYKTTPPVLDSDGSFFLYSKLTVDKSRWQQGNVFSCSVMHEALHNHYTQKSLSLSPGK
light: B3 light with E45Q, R54Q, R61Q
notes: IgG1-P238K; also called HC2/LC4
B11: M43 (HC-R57E / LC-K45E) (antibody, human IgG1, kappa, V domains shown)
VH: B1 VH with Q12K, Q13K, Q23K, R57E
VL: B1 VL
notes: IgG1-P238K; also called HC11/LC3
B12: M55 (HC-K23E / LC-K45Q,R54Q,R61Q) (antibody, human IgG1, kappa)
heavy: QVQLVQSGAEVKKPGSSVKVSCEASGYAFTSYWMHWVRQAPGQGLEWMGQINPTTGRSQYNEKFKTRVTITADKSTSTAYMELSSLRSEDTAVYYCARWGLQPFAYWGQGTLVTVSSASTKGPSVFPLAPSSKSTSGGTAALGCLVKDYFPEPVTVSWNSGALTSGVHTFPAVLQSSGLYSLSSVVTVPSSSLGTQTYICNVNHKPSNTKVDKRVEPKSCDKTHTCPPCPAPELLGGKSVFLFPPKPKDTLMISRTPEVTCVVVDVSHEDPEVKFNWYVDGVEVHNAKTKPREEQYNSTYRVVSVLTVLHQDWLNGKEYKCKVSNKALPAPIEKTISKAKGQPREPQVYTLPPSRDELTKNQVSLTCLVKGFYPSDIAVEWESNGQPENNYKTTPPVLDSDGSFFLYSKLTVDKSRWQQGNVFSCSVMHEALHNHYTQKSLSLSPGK
light: B3 light with E45Q, R54Q, R61Q
notes: IgG1-P238K; also called HC7/LC4
B13: M71 (HC-K23E / LC-R61Q) (antibody, human IgG1, kappa)
heavy: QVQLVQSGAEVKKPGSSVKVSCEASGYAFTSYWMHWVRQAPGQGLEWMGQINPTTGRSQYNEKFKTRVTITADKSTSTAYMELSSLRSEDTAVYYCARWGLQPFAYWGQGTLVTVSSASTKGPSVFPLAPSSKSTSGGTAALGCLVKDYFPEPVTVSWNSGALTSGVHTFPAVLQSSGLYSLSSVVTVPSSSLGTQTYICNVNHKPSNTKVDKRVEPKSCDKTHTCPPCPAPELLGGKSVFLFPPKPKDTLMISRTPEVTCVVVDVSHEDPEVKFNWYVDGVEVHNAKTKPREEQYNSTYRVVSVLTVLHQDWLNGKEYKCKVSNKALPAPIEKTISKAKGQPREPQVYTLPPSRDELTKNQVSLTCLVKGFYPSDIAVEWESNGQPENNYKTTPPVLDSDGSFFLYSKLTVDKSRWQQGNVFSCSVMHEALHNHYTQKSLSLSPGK
light: B3 light with E45K, R61Q
notes: IgG1-P238K; also called HC7/LC5
B14: M51 (HC-K12Q,K13Q,K23Q / LC-K45Q,R54Q,R61Q) (antibody, human IgG1, kappa, V domains shown)
VH: B1 VH
VL: B1 VL with E45Q, R54Q, R61Q
notes: IgG1-P238K; also called HC3/LC4
B15: M46 (HC-K74T / LC-K45E) (antibody, human IgG1, kappa, V domains shown)
VH: B1 VH with Q12K, Q13K, Q23K, K74T
VL: B1 VL
notes: IgG1-P238K; also called HC14/LC3
B16: M64 (HC-K63Q / LC-K45Q,R54Q,R61Q) (antibody, human IgG1, kappa, V domains shown)
VH: B1 VH with Q12K, Q13K, Q23K, K63Q
VL: B1 VL with E45Q, R54Q, R61Q
notes: IgG1-P238K; also called HC16/LC4
B17: M42 (HC-R67E / LC-K45E) (antibody, human IgG1, kappa, V domains shown)
VH: B1 VH with Q12K, Q13K, Q23K, R67E
VL: B1 VL
notes: IgG1-P238K; also called HC10/LC3
B18: M56 (HC-R38Q,K63Q,R67Q / LC-K45Q,R54Q,R61Q) (antibody, human IgG1, kappa, V domains shown)
VH: B1 VH with Q12K, Q13K, Q23K, R38Q, K63Q, R67Q
VL: B1 VL with E45Q, R54Q, R61Q
notes: IgG1-P238K; also called HC8/LC4
B19: M68 (HC-K12E / LC-R61Q) (antibody, human IgG1, kappa)
heavy: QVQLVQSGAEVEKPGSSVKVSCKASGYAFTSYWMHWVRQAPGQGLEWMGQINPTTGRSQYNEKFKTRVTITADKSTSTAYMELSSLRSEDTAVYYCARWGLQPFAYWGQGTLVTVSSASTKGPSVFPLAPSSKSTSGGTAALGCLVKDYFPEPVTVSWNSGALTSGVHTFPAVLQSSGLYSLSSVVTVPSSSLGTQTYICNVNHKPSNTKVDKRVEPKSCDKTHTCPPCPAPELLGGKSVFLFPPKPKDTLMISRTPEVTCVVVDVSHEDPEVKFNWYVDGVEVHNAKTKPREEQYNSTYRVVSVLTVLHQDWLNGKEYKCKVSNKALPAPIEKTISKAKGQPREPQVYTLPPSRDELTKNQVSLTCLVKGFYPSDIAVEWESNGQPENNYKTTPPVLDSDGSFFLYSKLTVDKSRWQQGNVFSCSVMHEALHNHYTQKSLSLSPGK
light: B3 light with E45K, R61Q
notes: IgG1-P238K; also called HC4/LC5
B20: M59 (HC-R57E / LC-K45Q,R54Q,R61Q) (antibody, human IgG1, kappa, V domains shown)
VH: B1 VH with Q12K, Q13K, Q23K, R57E
VL: B1 VL with E45Q, R54Q, R61Q
notes: IgG1-P238K; also called HC11/LC4
B21: M41 (HC-K63Q,R67E / LC-K45E) (antibody, human IgG1, kappa, V domains shown)
VH: B1 VH with Q12K, Q13K, Q23K, K63Q, R67E
VL: B1 VL
notes: IgG1-P238K; also called HC9/LC3
B22: M57 (HC-K63Q,R67E / LC-K45Q,R54Q,R61Q) (antibody, human IgG1, kappa, V domains shown)
VH: B1 VH with Q12K, Q13K, Q23K, K63Q, R67E
VL: B1 VL with E45Q, R54Q, R61Q
notes: IgG1-P238K; also called HC9/LC4
B23: M61 (HC-E46K,E62K / LC-K45Q,R54Q,R61Q) (antibody, human IgG1, kappa, V domains shown)
VH: B1 VH with Q12K, Q13K, Q23K, E46K, E62K
VL: B1 VL with E45Q, R54Q, R61Q
notes: IgG1-P238K; also called HC13/LC4
B24: M40 (HC-R38Q,K63Q,R67Q / LC-K45E) (antibody, human IgG1, kappa, V domains shown)
VH: B1 VH with Q12K, Q13K, Q23K, R38Q, K63Q, R67Q
VL: B1 VL
notes: IgG1-P238K; also called HC8/LC3
B25: M69 (HC-K12E,K13Q,K23E / LC-R61Q) (antibody, human IgG1, kappa)
heavy: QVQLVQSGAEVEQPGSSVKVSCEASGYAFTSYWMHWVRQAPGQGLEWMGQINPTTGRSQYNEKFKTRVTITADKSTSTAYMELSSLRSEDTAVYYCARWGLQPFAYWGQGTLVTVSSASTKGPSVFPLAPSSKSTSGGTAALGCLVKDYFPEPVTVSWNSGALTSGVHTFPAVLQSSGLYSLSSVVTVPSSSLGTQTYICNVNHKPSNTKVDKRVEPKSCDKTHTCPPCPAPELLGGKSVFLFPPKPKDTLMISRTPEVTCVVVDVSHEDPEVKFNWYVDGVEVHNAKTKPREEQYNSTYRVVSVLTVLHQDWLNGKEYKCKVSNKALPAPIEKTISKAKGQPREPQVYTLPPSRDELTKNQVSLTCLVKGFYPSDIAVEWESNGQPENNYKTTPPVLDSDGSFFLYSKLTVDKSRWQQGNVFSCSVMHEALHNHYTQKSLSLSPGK
light: B3 light with E45K, R61Q
notes: IgG1-P238K; also called HC5/LC5
B26: M52 (HC-K12E / LC-K45Q,R54Q,R61Q) (antibody, human IgG1, kappa)
heavy: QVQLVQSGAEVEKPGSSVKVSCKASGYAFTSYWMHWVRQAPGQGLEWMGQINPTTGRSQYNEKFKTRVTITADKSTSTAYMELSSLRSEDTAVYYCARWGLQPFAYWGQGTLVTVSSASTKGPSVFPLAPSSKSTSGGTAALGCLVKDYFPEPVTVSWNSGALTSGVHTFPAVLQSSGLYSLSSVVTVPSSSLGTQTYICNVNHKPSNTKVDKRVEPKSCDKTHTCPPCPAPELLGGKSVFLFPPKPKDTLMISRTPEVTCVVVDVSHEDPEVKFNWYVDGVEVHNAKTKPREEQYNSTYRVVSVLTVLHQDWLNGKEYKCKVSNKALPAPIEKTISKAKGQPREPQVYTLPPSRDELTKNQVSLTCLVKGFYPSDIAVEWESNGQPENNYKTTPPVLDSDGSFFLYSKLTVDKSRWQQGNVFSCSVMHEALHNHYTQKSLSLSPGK
light: B3 light with E45Q, R54Q, R61Q
notes: IgG1-P238K; also called HC4/LC4
B27: M70 (HC-K12V,K19S,K23A / LC-R61Q) (antibody, human IgG1, kappa, V domains shown)
VH: B1 VH with Q12V, Q13K, K19S, Q23A
VL: B1 VL with E45K, R61Q
notes: IgG1-P238K; also called HC6/LC5
B28: M66 (HC-K12Q,K13Q / LC-R61Q) (antibody, human IgG1, kappa)
heavy: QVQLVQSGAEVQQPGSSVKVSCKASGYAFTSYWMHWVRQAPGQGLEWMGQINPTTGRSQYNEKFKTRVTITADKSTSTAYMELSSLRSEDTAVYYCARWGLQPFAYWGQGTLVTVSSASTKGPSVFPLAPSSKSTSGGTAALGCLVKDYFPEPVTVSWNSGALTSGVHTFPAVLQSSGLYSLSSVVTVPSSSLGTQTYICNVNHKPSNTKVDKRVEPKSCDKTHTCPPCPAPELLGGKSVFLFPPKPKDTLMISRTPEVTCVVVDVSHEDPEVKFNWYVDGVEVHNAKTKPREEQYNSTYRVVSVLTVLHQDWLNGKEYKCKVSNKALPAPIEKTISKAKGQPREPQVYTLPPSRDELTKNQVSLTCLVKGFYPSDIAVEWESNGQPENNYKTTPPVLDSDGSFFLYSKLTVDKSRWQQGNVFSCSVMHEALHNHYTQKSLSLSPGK
light: B3 light with E45K, R61Q
notes: IgG1-P238K; also called HC2/LC5

Positions count from the first letter of the chain named. In names and notes the source's numbering stands.

T1 sequence (P25942 21-193 limits assumed): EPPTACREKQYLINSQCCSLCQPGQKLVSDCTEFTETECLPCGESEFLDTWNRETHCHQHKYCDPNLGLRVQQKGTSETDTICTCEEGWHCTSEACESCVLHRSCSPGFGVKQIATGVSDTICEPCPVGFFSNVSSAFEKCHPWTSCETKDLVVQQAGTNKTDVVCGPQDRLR

The assay has as its target T1, soluble human CD40 extracellular domain (human, UniProt P25942 21-193).
T1 construct: Produced in house; also called hCD40; soluble hCD40 extracellular domain
Briefly: SPR, Ab captured from supernatant on protein A, hCD40 ECD analyte. As to the method:
The titer data (Table 21) were used to normalize the antibody concentration in each supernatant to 3 μg/ml, and these antibodies were captured out of the supernatants on a protein A CMS Series S sensor chip (GE Healthcare), and tested for binding to two concentrations (5 nM and 50 nM) of soluble hCD40 extracellular domain.
CD40 binding SPR of antibody supernatants: Surface plasmon resonance (SPR) studies were conducted on a BIAcore™ T200 instrument (GE Healthcare, Chicago Ill.). A Series S Protein A sensor chip (GE Healthcare, Chicago Ill.) was equilibrated with SPR running buffer of 10 mM NaPO₄, 130 mM NaCl, 0.05% tween 20, (PBS-T) pH 7.2 at 25° C. The 96 antibody supernatants were normalized to a concentration of 3 μg/ml by diluting with PBS-T using a PerkinElmer JANUS® G3 system (PerkinElmer, Akron, Ohio). After priming the system, the 3 μg/ml antibody samples were captured on the protein A surface for 30 s at 10 μl/min Binding of 50 nM and 500 nM human CD40 extracellular domain (produced in house) was evaluated using association time of 180 s at 30 μl/min, followed by a dissociation time of 180 s at 30 μl/min Regeneration between cycles was accomplished using two 15 s injections of 10 mM glycine pH 1.5. […] Data were analyzed using BIAcore™ T200 evaluation software by fitting to a 1:1 Langmuir model.
One may read the Kd as the constant that tells how readily two partners part at equilibrium. A low value points to a tighter complex. In the case of B1, binding was characterised by a dissociation constant (Kd) of 3.7 nM.
The figure for B2 is 3.6 nM; for B3 it is 4.6 nM.
For B4 the value was 17.2 nM; for B5, 8.8 nM.
For B6 the value was 3.8 nM; for B7, 4.3 nM.
For B8, binding was characterised by a dissociation constant (Kd) of 14.7 nM.
The figure for B9 is 2.1 nM; for B10 it is 2.5 nM.
For B11 the value was 11.7 nM; for B12, 3.5 nM; for B13, 4.4 nM.
For B14 the value was 2.9 nM.
In the case of B15, binding was put at a Kd of 3.9 nM.
In turn, B16 had a Kd of 3.3 nM.
As for B17, binding was characterised by a dissociation constant (Kd) of 3 nM.
For the molecule B18, binding was characterised by a dissociation constant (Kd) of 2.5 nM.
The figure for B19 is 3.6 nM; for B20 it is 9.5 nM; for B21 it is 3.3 nM.
The figure for B22 is 2.5 nM; for B23 it is 7.5 nM.
With B24, the Kd came out at 3.1 nM.
B25: the Kd worked out at 3.8 nM.
With B26, binding was put at a Kd of 2.6 nM.
The figure for B27 is 3.5 nM; for B28 it is 3.6 nM.
